# Reference: US20110245167A1 (UNIVERSITY OF TOLEDO, published 2011)
# B1: pNaKtide (HIV-Tat-NaKtide) (peptide)
# peptide: not shown
# Target: Recombinant human Src expressed in Sf9 insect cells (purified recombinant full-length Src from Upstate … (human, UniProt P12931 2-536))
# Assay: cell-based or functional assay
binder,measurement,value
B1,IC50 of Src inhibition (in vitro kinase assay),~5 nM
